This note sets out measurements from US20160185837A1 (Medimmune Limited, priority 2013, published 2016).

A short description of one data set: PK by Activity. The procedure:
Table printed on a drawing sheet, FIG. 3D-F
Circles: IV injection of 1 mg/kg, squares: subcutaneous injection of 1 mg/kg. Pharmacokinetic parameters Cmax, bioavailability (F %) and half-life T1/2 are compared in panel C.
Circles: IV injection of 1 mg/kg, squares: subcutaneous injection of 1 mg/kg. Pharmacokinetic parameters Cmax, bioavailability (F %) and half life T112 are compared in panel F.
First reader's note: Panel F of FIG. 3D-F; the pharmacokinetic parameters were derived from plasma levels measured by activity (sheet heading 'PK by Activity').

For a further data set, the system named is blood glucose. Description: Oral glucose tolerance test (OGTT) in mouse model. Format: in vivo, C57 male mice. The procedure: The effect of IP088 on glycemic control in a mouse model was carried out as follows. Twenty-one (21) male C57 male mice (11-12 weeks old) were purchased from Taconic, Denmark and acclimatized for 3 weeks before experimentation. Throughout the acclimatization period the animals are offered ad libitum chow and tap water. Mice were single housed one week prior to the study. On day 1 of the study animals were randomized into 4 groups based on body weight (n=5-6 per group), and were administered the following compounds subcutaneously four hours (IP088, IP040, and GLP1a-Fc) or two hours (liraglutide) prior to each oral glucose tolerance test:
Group 6: Liraglutide (GLP-1 analog, Novo Nordisk) 0.2 mg/kg S.C.
Group 7: GLP1a-Fc (GLP-1 agonist) 1 mg/kg S.C.
Group 8: IP088 1 mg/kg S.C.
Oral glucose tolerance tests (OGTT) were performed on days 0 and 2, both after a 4-hour fast. […] Blood glucose was measured from tail vein blood before glucose (at t=−240, −120 and 0 min, baseline) and after glucose administration at t=15, 30, 60 and 120 min. Blood samples (tail vein) were collected into […] heparinized glass capillary tubes and immediately suspended in buffer (0.5 ml of glucose/lactate system solution (EKF-diagnostics, Germany) and analyzed for glucose on the test day using a BIOSEN c-Line glucose meter (EKF-diagnostics, Germany) according to manufacturer's instructions.

A further data set concerns the target T1, hGIPr (C3) (Homo sapiens, UniProt P48546).
T1 construct: expressed in transfected cells
T1 sequence (P48546 22-466): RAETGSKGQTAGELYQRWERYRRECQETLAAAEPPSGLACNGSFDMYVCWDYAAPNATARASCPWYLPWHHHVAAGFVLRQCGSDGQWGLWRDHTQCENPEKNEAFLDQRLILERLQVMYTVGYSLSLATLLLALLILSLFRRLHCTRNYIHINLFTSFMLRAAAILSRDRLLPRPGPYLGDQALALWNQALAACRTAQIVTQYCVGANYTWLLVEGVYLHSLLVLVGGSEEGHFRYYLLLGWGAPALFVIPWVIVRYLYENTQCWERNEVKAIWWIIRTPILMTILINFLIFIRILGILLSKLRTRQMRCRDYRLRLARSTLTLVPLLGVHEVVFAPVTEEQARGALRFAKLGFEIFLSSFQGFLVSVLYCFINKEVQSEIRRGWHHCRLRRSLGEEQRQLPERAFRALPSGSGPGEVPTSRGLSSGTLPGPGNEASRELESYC
Description: BSA-cAMP assay, second human GIPr cell line hGIPr (C3). Particulars: Batch 1, second hGIPr cell line, read-out: hGIPr (C3) cAMP activity EC50. Format: cell-based. The procedure:
For human GIPr, two different lines were used, shown as “hGIPr” and “hGIPr (C3)” in Table 11. Peptide activation of these various receptors results in downstream production of cAMP second messenger that can be measured in a functional activity assay.
One basic cAMP assays was performed, differing in the medium used for the assay, the “BSA-cAMP assay”:
BSA-based assay medium: 0.1% bovine serum albumin (BSA) in
Hanks Balanced Salt Solution (GIBCO or Sigma), containing 0.5 mM IBMX (Sigma #17018);
In certain aspects, the assay can also be carried out in medium supplemented with serum albumin that corresponds to the receptor being tested, e.g., human serum albumin for testing cAMP activity at hGIPr or hGLP-1r, rat serum albumin for testing cAMP activity at rGIPr or rGLP-1r, and so on. […]
cAMP levels were measured using a commercially available cAMP dynamic 2 HTRF kit (Cisbio, Cat #62AM4PEJ), following the two step protocol as per manufacturer's recommendations. […] Plates were incubated at room temperature for one hour and then read on an Envision (Perkin Elmer) using excitation wavelength of 320 nm and emission wavelengths of 620 nm & 665 nm. Data was transformed to % Delta F as described in manufacturer's guidelines and then transformed to percent activation of maximal native agonist response and analysed by 4-parameter logistic fit to determine EC50 values. […]

Broadly, the Cmax is the highest concentration seen after dosing. In general, t½ refers to how long it takes for the measured level to halve. In general, EC50 refers to the concentration at which the effect is half-maximal.

B1: IP088: Fc fusion, IgG1-TM, SEQ ID NO:105; agonist peptide YSEGTFTSDYSKLLEEEAVRLFIEWLVKGP (SEQ ID NO:15) (protein)
chain: YSEGTFTSDYSKLLEEEAVRLFIEWLVKGPAAAGGSGSTASSGSGSATGGGGAATHTCPPCPAPEF
modifications: also: Fc fusion, IgG1-TM
In the case of B1, in “PK by Activity”, the “Cmax” value was 98 nM, the “F (%)” value was 72% and the “t½” value is 24 h. The “glycemic control in OGTT compared with GLP1a-Fc, in words” value in the data set on blood glucose (1 mg/kg S.C. each, OGTT days 0 and 2) is “superior to GLP1a-Fc at glycemic control”. For the same molecule, in the data set on blood glucose (1 mg/kg S.C. four hours before OGTT, days 0 and 2, 2 g/kg oral glucose), the “glucose lowering effect in OGTT, in words” value was “excellent glucose lowering effects”.

B2: IP367 (protein)
chain: YSEGTFTSDYRILKERQAIDEFIAWLLKGGAAAGGSGSTASSGSGSATGGGGAATHTCPPC
For the molecule B2, in the data set with hGIPr (C3), the half-maximal effective concentration (EC50) is 13 nM.
